In paper PMC4380367:

Key:
[1] = target: Msf 1-203 KIK66-68AIA (Neisseria meningitidis strain H44/76); test: ELISA; Msf constructs (or control protein) coated at 3 μM in carbonate buffer pH 9.6; aVn 74 nM in PBS overlaid 1 h at RT; bound aVn detected with rabbit polyclonal anti-vitronectin
[2] = target: Msf 1-203 K60A (Neisseria meningitidis strain H44/76); test: SDS-PAGE of unheated samples with Western blot; purified recombinant Msf proteins not heated before SDS-PAGE; detected with anti-Msf polyclonal antibody; bands near the trimeric molecular weight
[3] = target: Msf 1-203 KIK66-68AIA (Neisseria meningitidis strain H44/76); test: as above
[4] = target: Msf 1-203 KK79-80AA (Neisseria meningitidis strain H44/76); test: as above
[5] = target: Recombinant Msf 1-422 construct lacking amino acids 4-82 (Neisseria meningitidis strain H44/76); test: as above
[6] = target: Human vitronectin in its unfolded, activated form (human); test: ELISA; aVn coated at 74 nM; Msf constructs overlaid at 3 μM; bound Msf detected with rabbit anti-Msf polyclonal antiserum
[7] = target: Recombinant Msf fragment Msf 1-86 (strain H44/76) (Neisseria meningitidis strain H44/76); test: SEC; HiLoad 16/60 Superdex 200 in 50 mM Tris pH 8, 200 mM NaCl; mass from peak elution volume against protein standards
[8] = target: Recombinant Msf fragment Msf 1-203 (strain H44/76) (Neisseria meningitidis strain H44/76); test: as above
[9] = target: Recombinant Msf fragment Msf 1-422 (strain H44/76) (Neisseria meningitidis strain H44/76); test: as above
[10] = target: Recombinant Msf fragment Msf 197-422 (strain H44/76) (Neisseria meningitidis strain H44/76); test: SDS-PAGE of unheated samples with Western blot; purified recombinant Msf proteins not heated before SDS-PAGE; detected with anti-Msf polyclonal antibody; bands near the trimeric molecular weight

Human vitronectin in its unfolded, activated form (natural protein)
reduction in Vn binding against Msf 1-203 [1]: 45%

Msf 1-203 K60A (domain or fragment)
stoichiometry N [2]: 3

Msf 1-203 KIK66-68AIA (domain or fragment)
stoichiometry N [3]: 3

Msf 1-203 KK79-80AA (domain or fragment)
stoichiometry N [4]: 3

Recombinant Msf 1-422 construct lacking amino acids 4-82 (domain or fragment)
stoichiometry N [5]: 3
fold reduction of binding against Msf 1-422 [6]: 4 fold

Recombinant Msf fragment Msf 1-86 (strain H44/76) (domain or fragment)
stoichiometry N [7]: 3

Recombinant Msf fragment Msf 1-203 (strain H44/76) (domain or fragment)
stoichiometry N [8]: 3

Recombinant Msf fragment Msf 1-422 (strain H44/76) (domain or fragment)
stoichiometry N [9]: 3

Recombinant Msf fragment Msf 197-422 (strain H44/76) (domain or fragment)
stoichiometry N [10]: 3
fold lower binding than Msf 1-422 [6]: 6 fold
